{"source": "the DeepSol protein solubility set", "data": [{"test": "soluble on expression in E. coli; label from the status in PepcDB or PDB records", "values": [{"sequence": "MTAFEEFGIIPELSDALSSLNWTLPTAVQSEAIPAILGGADALIAAETGSGKTGAFSLPIAQIVWERRKSAEKSQNSGQKPENSREFQLNREDRDVSLQIDKTGLNCESRVAKEWHGARATAGLYGNGKYYYEVTVTRDGLCRVGWATLSGSLKIGTDFESFGYGGTGKKSFGKKFDDYGTSFTTNDVLGCFLDLDELKIWWSKNGVQFPVAYQIDKKFKTAATCLYPAILCQNSGLGVNFGGSAAFKYPPGTQYVAVAQAEDGNLKWWSAAEQLSIDSSTPLCVILEPTRELVQQTFQNIQTFASVLDSPKIRCVTLAAGENMNQILRTLETGCDIVVGTPSRVFDLIHTGKLATKNLQFVVIDEIDQFLAGKNNCAHQIESIFRVLPLVAQDGTRRQVIACSATLHNFEVCRFADRHMSFPQWIDLKGADCVSADVHHVVCHVDASEDKQWIRQMHQQVHLEDDHVHDGDQIRPGTTDKDTISLGTKILKGIYVVRAIHALQMDKAIVFCRTKQQCDHMEHFLQQNNLSAACLHGDRSAEERQSSLEGFKKGIIRFLVCSDVVARGLDVQGVPFVISVTLPDEKSMYVHRIGRVGRAERMGLSISLVSEYEEKAWYHKCRSRGVNCTNTKDISKGGCTIWLQEKKMLGEIEEHLGATISTVDSDFNVPVDEFDGKVVYGERRTGGANFDTHVLQLASSASQLADLETKMQLEYLNNNRHVFEIHSM", "soluble on expression in E. coli": "not soluble"}, {"sequence": "MSLAYGNINQPFSLESLPDELIPENLYQIETDSSRVFQRHQCRRLAHLLLFQLLKIAGKSTALLSQIHRTESGRPYFLDERIDFNISHSGDWVAVILDIRNEEKSAVGIDIEFPKIRNFTALMEHIAPKEEIDWFHHQQDSLNAFYRCWCLREAVLKSQGFGIVKLSNVRHFPEQQKIFSDYCPQGQLWFTDELPIYLAAFVNHQEKLPHFYEWNRESLQIKELEKYVLYEVNEGHHHHHH", "soluble on expression in E. coli": "not soluble"}, {"sequence": "MRKISYRFVYNRKKSLNDRGTALVQVEAYLNKKKVYFSTHVYLRPEQWDVKRKIIKDHPNQDALNGMLNEFIIELEKKELSLWRQGKTITLSLIKEEFKSNTDASFLGFARKEIMSSQLKDSTKRNHLTTISLLQSFKPTIEFEDLTYNFVTDFEKNLYESGYQTNTVAKHMKHLKSFVNAAINKGYIDPNNYAFRRYKIKMKEGKHVFLLPEEMKKLEEVSLTGRNSCLEHTLDAFLFCCYTGLRYSDFVNLNEKNIVKMDGKLWLIFDSVKTGTEVKLPLNLLFEGKALTLLQKYQGKWSSFFSIK", "soluble on expression in E. coli": "not soluble"}, {"sequence": "MGSDKIHHHHHHMESQNVSFRVAREDLVTAVAWVARNLPTKPTQPVLRAMLITADDEGLELAGYDYDVSTRVRLSAEVSQPGRIAVAGKLLSEITGSLPNKPVDFRIDGSKAFVTCGSSRFELPLIPLDDYPMLPKLPAGTGSINAKLFTEAVSQVASAAGKDDSLPMLTGVSMEIVGNQINLAATDRFRLALRTFEWEANDPELNVKLLIPARTLLDNARSLDSGLNDSIDIAVGTGDQVGREGLFGVHTDNRETTTRLLDADFPNIAPLLPKEHTAIASVEIAPLVDAIRRVSLVAERNAQIVLHFSEGQVILTAGATEAGHAEETLPCAFTGKELTIAFNPGYLKDGLSVVPTSRAVFGFTEPSRPAIMIPEPEEMPSANENGIFQTPDTYFTYLLMPVRLPG", "soluble on expression in E. coli": "not soluble"}, {"sequence": "MKVGIIGASGYTGSELLRILANHPEAEVIAASSRRYEGQKIWKVHRFLKGFYDLEFCSPELSNFGDCDLVFTAVPHGEAMKYVPQLLDSGIKVVDISADYRLDKETYERVYGKKHEGYVEAVYGLTELHREEIKKANLVANPGCYPTGTILAASPLAKLELIERVVFDCKSGITGAGESPSAFTHYPNLHESIVPYKITEHRHYYEMVQELGRFQSDIKISFTPQVYPGSRGILTNAHVFLRGELTREELYRIYEEFYEDSFFVRIQESVSLSQVRGSNFCDISIHPGEDRVVVVSAIDNLVKGASGQAVQNMNLMMGFDETLGLRTPPLFP", "soluble on expression in E. coli": "not soluble"}, {"sequence": "MGSDKIHHHHHHMASLLALDFDGVLCDGLREYFLAAWQAGCDRDPSWPEVPEPSLEDRFRLLRPVIEQGWEMPVLLQALRREVADAEVLADWPQLCDRVLKDWGLTTTELSQAMDRVRDRWIKRDRKEWLQLHHFYPGVAERLAQQTAPWVIISTKDGRFIAELLEQIPNLQPPLAIYGKEVGVPKTQTLIQLQVEFEQIAFVEDRLPALEAAAQLESVDLYLADWGYNTDRDRQQAMTSDRIQLLRLTDFSSGRSPALAASPVES", "soluble on expression in E. coli": "not soluble"}, {"sequence": "MSVVDMSAEKMTKLEENLQRAVALKKTVDRWRNFHIHCMWQTTLDQRRNLFAALRMKDTKEQELALSNKQLLVVRQAALHELFEKEYQQYQQELNQMGKAFYEERL", "soluble on expression in E. coli": "not soluble"}, {"sequence": "MKVALYAGTYVKDKDGAVRSIYQLVSSMIKNGHQVVVWTPDFTPEANASVPVNLTPSVPIPLYPDYKLGFYNAVTERQLDEFAPDIVHISTPDIVGRKFLHYAKRKGLPVGSAYHTDFPSYLSYYRLGFAEPAVWRFLRKFYNACDVTLAPNESVRERLTGKGIERVELWSRGIDKELFDPSRRSAKLRRAWDAEGRTVIIYAGRFVLYKDIEVVMSLYQRFADEGLGDRVRFVMIGSGPEEAQMRARMPEAVFTGYLTGTTLPEAYASGDLFLFPSTTEAFCNVTLEALATGLPAVVSDVGGCQELVERSGGGFVAKAGDVGDFYACCTKLMQDGELFRSMRERGLAFAKDKSWAAVNGKLIDRYLELIAAKARRLEHHHHHH", "soluble on expression in E. coli": "not soluble"}, {"sequence": "MKVWRVEKREEGWRLDQFLKEKTPSWISRSMIQKAIKEGKVKVNGQIKKPSYKLKEGEIVEVDLPEKPQEATVQPEEIELKVLYEDRDIIVIDKPGDMIVHPVPSKLSGTLVNALLHHCKDLQGVGGKLRPGIVHRLDKETSGVIVVAKNDFAHQSLSKQFKDRKVKKTYILLVKGKMKNDEGVIDLPLARHPVLRIKMAVVETGKEAITEYRVLKRFDDVATLVLAFPKTGRTHQIRVHMKSLGHPIMGDKIYGKPKEDEIFGIKRQMLHALKLGFFHPRTGEWMEFVSPLPEDFKEAIRRIHEYVRERS", "soluble on expression in E. coli": "soluble"}, {"sequence": "MAIIASTFGTGLSYAGELPFKPVTGGEVGRKQQRMVVVRAEGGGGINPEIRKNEDKVVDSVVVTELSKNITPYCRCWRSGTFPLCDGSHVKHNKANGDNVGPLLLKKQ", "soluble on expression in E. coli": "soluble"}, {"sequence": "MIHPARPLRGQAALEARDPNARLEEAVGLAVALDLNVVEALVAPLRVVTPATLFGKGKVEEFAAICEVEHIDVAVFDDQLTPIQQRNLEKALKVKVVDRTGLILEIFARRARTREGRLQVELARLDYERSRLVRTWTHLERQRGGTGSTGGPGETQIEIDRRLIAGTILKLKKELEEVRRTRTLHRSARKKVPYPTVALVGYTNAGKSTLFNRLTEAEVLAKDMLFATLDPTLRTVKLPDGRPAIMSDTVGFISDLPHELVEAFRATLEEVQEADVVLHVRDVANPDSEAQARDVETVLAELGVTLDEGKTVVEVWNKVDLLSEDDREIVEGQARRNDASAVSAVTGEGCEALLRRIAGLIDDSPPVEVSLAAQDGQALAWIYRNGRVLSRYDGPGGEVTLVARLDAQALGRFERQFPGAQVSAAVDLEHHHHHH", "soluble on expression in E. coli": "soluble"}, {"sequence": "MEKYIHSVEDYHRLISYLENNLNYEDSVVNHVIYVIAKTGMRYGEIIGLTNNDTSLDEHYLHTYKRYNTSTWKWTNAKNESSKRYIPIDDKIVAALSNMIKERERINSLLRIKNKEEFLFFHYGLEHGIPSVATVNKALKKILKKLDIEPIITTKGLRHTYGSYLLHNNIDMGVVARILGHKDIQMLIQVYGHTLTEKIDKEFKEVEQIMNRILEHHHHHH", "soluble on expression in E. coli": "not soluble"}, {"sequence": "MGHHHHHHSHMVGLDIDSRLIHSARQNIRHYLSEELRLPPQTLEGDPGAEGEEGTTTVRKRSCFPASLTASRGPIAAPQVPLDGADTSVFPNNVVFVTGNYVLDRDDLVEAQTPEYDVVLCLSLTKWVHLNWGDEGLKRMFRRIYRHLRPGGILVLEPQPWSSYGKRKTLTETIYKNYYRIQLKPEQFSSYLTSPDVGFSSYELVATPHNTSKGFQRPVYLFHKARSPSH", "soluble on expression in E. coli": "not soluble"}, {"sequence": "MAHHHHHHMGCGGSKPNAVSRDVEEKALYLRGIKESIDKAEGNMLATLHALQALMRSYESTSYSFVELAHGTDGNTSLKAKTFESDMRTLKDSGIMPKLQKDLGQSVSSLGKDIRAKHDKANVVYREMTQANDAYCKLRERVNGIEKSYAKKNKPVSECPSYTKNCKERDVCLARYEGLKKVFLTLVEELRTLIRSYVTAGLTRYAFSTADYAQQLVNSLQKYKSE", "soluble on expression in E. coli": "soluble"}, {"sequence": "GSSGARCYVDGSEEIGSDFKIKCEPKEGSLPLQYEWQKLSDSQKMPTSWLAEMTSSVISVKNASSEYSGTYSCTVRNRVGSDQCLLRLNVVPPSNK", "soluble on expression in E. coli": "soluble"}, {"sequence": "MKKGVLFDLDGTILDFEKSEDQALKRTFLKYGIPLTEDQVFLYREINRKWWKLLAEGKVSKDVVVVARFEEFLKTLNIPLDPRKVAKDYLEFLSEEAHFLPGAEEFLERLKKKDLRMAVVTNGVRFVQEKRSRKLKLDRFFEFVLTSEEAGVEKPDPRIFWLALERMKLKKEEVLYVGDDFSSDLEGARNAGIDFVLFSSDGDSSGDFPVARNFKELEKIVEEFL", "soluble on expression in E. coli": "soluble"}, {"sequence": "MSRVERLPNGLVVALEERDFPGVAFQLLVPAGAVNDPEGMEGAAALLEGWLWKGAGDLDARALAQALDALGVRRSSGAGLEYTAFAAAFLPEVLDEVFRLYALLLTRPRLPEEGLEAVGHVALQALLSLEDQPARKLLSELRRKVFRSPHGREPLGREEGLKGARAEALKADYRRRYTPKGAILAVAGGVSWERLRAALEPFLAWEGEEALYPAPELSEPHRFVLRRPTAQVQIGLAYPDVGPEDPGFYAARLALEVLSGGMSSRLFTEVREKRGLVYAVSAFPAGVKGQGLLMAYAGTTKERAGETLEVLRAEVERLAEGVTEEELFRAKVGLKTALVMADESIRSRAASMARDLYMLGRVRSLSEIEAAIEGTSLEAVNAFLRAHPYRDPWVGLLGEVEDV", "soluble on expression in E. coli": "soluble"}, {"sequence": "MCGRFAQAQTREEYLAYLADEADRNIAYDPQPIGRYNVAPGTKVLLLSERDEQLHLDPVIWGYAPGWWDKAPLINARVATAASSRMFKPLWQHGRAICFADRWFEWKKEGDKKQPYFIHRKDGKPIFMAAIGSTPFERGDEAEGFLIVTSAADKGLVDIHDRRPLALTPETARVWMRQFLEPHSKSITYRVIPALTRPMMRKDTNPCQLEHHHHHH", "soluble on expression in E. coli": "not soluble"}, {"sequence": "MLNETIQKEFQRKEIKYLIEADTFEQLQKEFKDYLTPDRFTHSSITNIYFDNPDFQLIKDSINHRHASEKIRMRTYDPKPTQKSQAFLEIKKKEYQGEQEIGYKYRLTSTPLSLCNYVQQGIIDNNIKQDDRANHELAILRERYKKLVPKMFIHYERFSLRGIENPKLRVTFDRNVIYRHENVNLTSGFNGYPLLKNNQIVMEIKVKNGLPAWMEKIFHKHQLIPQSFSKYTTAYLKAYGLTPEDIREEPTSIALEHHHHHH", "soluble on expression in E. coli": "soluble"}, {"sequence": "MNQNQNKKTKIVALSMMNSQTSGNPSRGTTKFESYTFDYWQYIDTLVYWGGSSGEGIIVTPSADVIDEAHSNGVPVLGTIFLPPKEYGGKVDWVKTMLKKDEQGQYPFASQMVKVAKTYGFEGWFINEETQGLNADDAANMKALIQQVKKEDSSLQIMWYDAMTKDGKVDWQNQLNDQNATFVQDKAADAMFLNFWWTQNNLADQKLLEKSNLYAKNHNIDPYNIYAGIDVQAKDVQTPVKWNLLEKGNQATQTSIGLYAASATYTNASNWDDFQNRESAFWVNQKADPRQVDHSVNESWTGLSKYVLEKSAISGNEFNTNFNLGNGYNYFKAGQKISEMDWNDRSLAGILPSYRWIIDNEGKNKISPSFDFANAYNGGNSLKFMAEHLDAGKSSNITLFASDLKIAMGAKFSVSMRSDQALKVSAILELANGQKVSIAGDKSLTENWSKLEHHHHHH", "soluble on expression in E. coli": "soluble"}, {"sequence": "MAHHHHHHMNKTNEVDDWTEWLDDDDEKREDEFHIDSTKDEAIKKKILQNNLDDIADFLDIGDNKKKKVEETENKVKPKVTEKIITLESTPLNSIKDCETLGEILAGRIRKCKAKSVALERFISIIITASESKLEDKDLLTVSRKLQEMVSQREKKKRYAQINKKKPNEVKNSIKNYEDEVDMIYGDLSYDEDDYEEEVVDEYLENF", "soluble on expression in E. coli": "soluble"}]}]}
